# Assays:
# HLA-A*24:02 [1] = experiment: IEDB peptide-MHC binding, purified MHC/competitive/fluorescence; ≥ and ≤ were set here for values at or beyond the usual limits of such assays
# HLA-B*44:02 = experiment: IEDB peptide-MHC binding, purified MHC/competitive/radioactivity; filed as Kd, often an IC50 or EC50 that approximates it; ≥ and ≤ were set here for values at or beyond the usual limits of such assays; conditions: source organism: Dengue virus 2 Jamaica/1409/1983
# HLA-B*44:03 = experiment: as above
# HLA-A*01:01 = experiment: as above
# HLA-A*23:01 = experiment: as above
# HLA-A*24:02 [2] = experiment: as above
# HLA-A*26:01 [3] = experiment: as above
# HLA-A*29:02 = experiment: as above
# HLA-A*30:02 = experiment: as above
# HLA-A*68:02 = experiment: as above
# HLA-A*03:01 = experiment: as above; conditions: source organism: Vaccinia virus WR
# HLA-A*11:01 = experiment: as above; conditions: source organism: Vaccinia virus WR
# HLA-A*31:01 = experiment: as above; conditions: source organism: Vaccinia virus WR
# HLA-A*33:01 = experiment: as above; conditions: source organism: Vaccinia virus WR
# HLA-A*68:01 = experiment: as above; conditions: source organism: Vaccinia virus WR
# HLA-A*26:01 [4] = experiment: IEDB peptide-MHC binding, purified MHC/direct/fluorescence; filed as Kd, often an IC50 or EC50 that approximates it; ≥ and ≤ were set here for values at or beyond the usual limits of such assays
# HLA-A*02:01 = experiment: IEDB peptide-MHC binding, purified MHC/competitive/fluorescence; ≥ and ≤ were set here for values at or beyond the usual limits of such assays; conditions: source organism: Sudan ebolavirus
# HLA-B*40:01 = experiment: IEDB peptide-MHC binding, purified MHC/competitive/radioactivity; filed as Kd, often an IC50 or EC50 that approximates it; ≥ and ≤ were set here for values at or beyond the usual limits of such assays
# HLA-B*15:01 = experiment: as above; conditions: source organism: Dengue virus 1 Brazil/97-11/1997
# HLA-B*07:02 = experiment: as above; conditions: source organism: Dengue virus 2 Jamaica/1409/1983
# HLA-B*51:01 = experiment: as above; conditions: source organism: Dengue virus 2 Jamaica/1409/1983
# [5] = source organism: Sudan ebolavirus
# [6] = source organism: Dengue virus 2 Jamaica/1409/1983
# [7] = source organism: SARS coronavirus Tor2
# [8] = source organism: Dengue virus 1 Brazil/97-11/1997
# [9] = source organism: Mammarenavirus whitewaterense
# [10] = source organism: Vaccinia virus WR
# [11] = source organism: Zaire ebolavirus
# [12] = source organism: Mammarenavirus juninense
# [13] = source organism: Mammarenavirus brazilense
# [14] = source organism: Mammarenavirus lassaense
sequence,measurement,setting,value
AEGVIAFLI,IC50,HLA-A*24:02 [1]; [5],440 nM
AEMEEALRG,Kd,HLA-B*44:02,4.65 nM
same,Kd,HLA-B*44:03; [6],13.2 nM
DSFKEELDKY,Kd,HLA-A*01:01; [7],754 nM
same,Kd,HLA-A*23:01; [7],≥ 70000 nM
same,Kd,HLA-A*24:02 [2]; [7],≥ 70300 nM
same,Kd,HLA-A*26:01 [3]; [7],416 nM
same,Kd,HLA-A*29:02; [7],399 nM
same,Kd,HLA-A*30:02; [7],299 nM
DYRHYSASF,Kd,HLA-A*01:01; [7],≥ 41800 nM
same,Kd,HLA-A*23:01; [7],88.7 nM
same,Kd,HLA-A*24:02 [2]; [7],215 nM
same,Kd,HLA-A*26:01 [3]; [7],7410 nM
same,Kd,HLA-A*29:02; [7],25.7 nM
same,Kd,HLA-A*30:02; [7],4340 nM
EAAAIFMTA,Kd,HLA-A*68:02; [8],0.301 nM
EGCPKPHRL,Kd,HLA-A*01:01; [9],13900 nM
same,Kd,HLA-A*23:01; [9],≥ 77700 nM
same,Kd,HLA-A*24:02 [2]; [9],≥ 46800 nM
same,Kd,HLA-A*26:01 [3]; [9],≥ 77900 nM
same,Kd,HLA-A*29:02; [9],≥ 43700 nM
same,Kd,HLA-A*30:02; [9],12400 nM
EKEFLRYLL,IC50,HLA-A*24:02 [1]; source organism: Vaccinia virus,≥ 116000 nM
ELMMATIGI,Kd,HLA-A*68:02; [6],1.03 nM
ESRPFDLIKK,Kd,HLA-A*03:01,236 nM
same,Kd,HLA-A*11:01,74.2 nM
same,Kd,HLA-A*29:02; [10],≥ 71400 nM
same,Kd,HLA-A*31:01,257 nM
same,Kd,HLA-A*33:01,1000 nM
same,Kd,HLA-A*68:01,2.14 nM
EYTYPDSLE,IC50,HLA-A*24:02 [1]; [11],≥ 190000 nM
FVLALLAFF,Kd,HLA-A*26:01 [4]; source organism: West Nile virus,≥ 20000 nM
GMEAQFLYLY,Kd,HLA-A*01:01; [7],181 nM
same,Kd,HLA-A*23:01; [7],≥ 46400 nM
same,Kd,HLA-A*24:02 [2]; [7],≥ 57400 nM
same,Kd,HLA-A*26:01 [3]; [7],12300 nM
same,Kd,HLA-A*29:02; [7],28.7 nM
same,Kd,HLA-A*30:02; [7],147 nM
GYQPYRVVVL,Kd,HLA-A*01:01; [7],≥ 70400 nM
same,Kd,HLA-A*23:01; [7],53.4 nM
same,Kd,HLA-A*24:02 [2]; [7],201 nM
same,Kd,HLA-A*26:01 [3]; [7],≥ 69700 nM
same,Kd,HLA-A*29:02; [7],1230 nM
same,Kd,HLA-A*30:02; [7],≥ 78900 nM
HISRQRLTKY,Kd,HLA-A*01:01; [7],12100 nM
same,Kd,HLA-A*23:01; [7],≥ 70000 nM
same,Kd,HLA-A*24:02 [2]; [7],≥ 70300 nM
same,Kd,HLA-A*26:01 [3]; [7],1160 nM
same,Kd,HLA-A*29:02; [7],1020 nM
same,Kd,HLA-A*30:02; [7],581 nM
HTKKEMRSF,Kd,HLA-A*26:01 [4]; source organism: Bacillus cereus NVH0597-99,15 nM
HWVPTSRTTW,Kd,HLA-A*23:01; [6],734 nM
same,Kd,HLA-A*24:02 [2]; [6],603 nM
IAWIPYFGP,IC50,HLA-A*02:01,26900 nM
same,IC50,HLA-A*24:02 [1]; [5],55800 nM
IEAGRTLRVL,Kd,HLA-B*40:01; [6],170 nM
IENSTANVSL,Kd,HLA-B*40:01; source organism: Dengue virus 3 Martinique/1243/1999,6.06 nM
ISHRPVVLT,IC50,HLA-A*24:02 [1]; source organism: Variola virus,1370 nM
ISKIPGGNMY,Kd,HLA-A*01:01; [8],≥ 27800 nM
same,Kd,HLA-A*30:02; [8],15.4 nM
same,Kd,HLA-B*15:01,137 nM
IVNAQPKCN,IC50,HLA-A*24:02 [1]; [11],8880 nM
KWADNNCYL,Kd,HLA-A*01:01; [7],≥ 78100 nM
same,Kd,HLA-A*23:01; [7],3410 nM
same,Kd,HLA-A*24:02 [2]; [7],4920 nM
same,Kd,HLA-A*26:01 [3]; [7],≥ 77900 nM
same,Kd,HLA-A*29:02; [7],≥ 83300 nM
same,Kd,HLA-A*30:02; [7],≥ 78900 nM
LDHVNTLHF,Kd,HLA-A*01:01; [12],19500 nM
same,Kd,HLA-A*23:01; [12],5070 nM
same,Kd,HLA-A*24:02 [2]; [12],10500 nM
same,Kd,HLA-A*26:01 [3]; [12],≥ 77900 nM
same,Kd,HLA-A*29:02; [12],≥ 63800 nM
same,Kd,HLA-A*30:02; [12],≥ 46500 nM
LEENVEVEI,Kd,HLA-B*40:01; [6],10.9 nM
LEIGKLPQHL,Kd,HLA-B*40:01; [8],145 nM
LGYCMIRWL,IC50,HLA-A*24:02 [1]; [10],≥ 78900 nM
LWEGSPGKFW,Kd,HLA-A*23:01; [8],2250 nM
LWEKLCYLI,Kd,HLA-A*23:01; [13],265 nM
same,Kd,HLA-A*24:02 [2]; [13],2880 nM
same,Kd,HLA-A*29:02; [13],4440 nM
LYNSTFFSTF,Kd,HLA-A*01:01; [7],10300 nM
same,Kd,HLA-A*23:01; [7],0.965 nM
same,Kd,HLA-A*24:02 [2]; [7],0.635 nM
same,Kd,HLA-A*26:01 [3]; [7],834 nM
same,Kd,HLA-A*29:02; [7],622 nM
same,Kd,HLA-A*30:02; [7],1160 nM
MAIGIVSILL,Kd,HLA-A*68:02; [8],15 nM
MCPFLFLAV,Kd,HLA-A*01:01; [14],492 nM
same,Kd,HLA-A*23:01; [14],≥ 51100 nM
same,Kd,HLA-A*24:02 [2]; [14],≥ 77500 nM
same,Kd,HLA-A*26:01 [3]; [14],≥ 77900 nM
same,Kd,HLA-A*29:02; [14],1690 nM
same,Kd,HLA-A*30:02; [14],≥ 31200 nM
MGLLCLTLF,Kd,HLA-A*23:01; source organism: Dengue virus 4 Philippines/H241/1956,451 nM
MILPMSRAF,IC50,HLA-A*24:02 [1]; source organism: Mus musculus,1750 nM
MPVTHSSAAQ,Kd,HLA-B*07:02,≥ 20100 nM
same,Kd,HLA-B*51:01,≥ 69600 nM
MVNGVVRLL,Kd,HLA-A*68:02; [6],25.8 nM
NEVHTWTEQY,Kd,HLA-B*44:03; [8],137 nM
NIDATSTGNY,Kd,HLA-A*01:01; [7],110 nM
same,Kd,HLA-A*23:01; [7],≥ 70000 nM
same,Kd,HLA-A*24:02 [2]; [7],≥ 70300 nM
same,Kd,HLA-A*26:01 [3]; [7],897 nM
same,Kd,HLA-A*29:02; [7],5520 nM
same,Kd,HLA-A*30:02; [7],1420 nM
